B1: C8E7: E7 linked to C8, hetero-dimer VHH bihead (protein)
chain: EVQLVESGGGLVQAGGSLRLSCAASGRTFRINDMGWYRQAPGKSRDMVARITSGGNTNYADSVKGRFTISRDNAKNTVYLQMNSLKPEDTAVYYCNADGLRFDSTRYRPFDSWGQGTQVTVSSGGGGSGGGGSEVQLVESGGGLVQAGGSLRLSCAASGSIRGFVAMAWYRQAPGKQREWVATVTNGGTLYGDSVKGRFTGSRDNAKNTVYLQMNSLKPEDTAVYYCALRQIGASGYDYWGQGTQVTVSS
B2: hNoggin (protein)
chain: QHYLHIRPAPSDNLPLVDLIEHPDPIFDPKEKDLNETLLRSLLGGHYDPGFMATSPPEDRPGGGGGAAGGAEDLAELDQLLRQRPSGAMPSEIKGLEFSEGLAQGKKQRLSKKLRRKLQMWLWSQTFCPVLYAWNDLGSRFWPRYVKVGSCFSKRSCSVPEGMVCKPSKSVHLTVLRWRCQRRGGQRCGWIPIQYPIISECKCSC

How the values were obtained:
[1] = test system: endogenous BMP activity; test: BRE-luciferase activity of supernatants of mouse intestinal organoid cultures; type: cell-based; conditions: supernatants of day 3; C4C4 100 ng/ml, C8C8 500 ng/ml or 5 μg/ml
Description: (§1) Finally, the VHHs were tested in an intestinal organoid culture system for their ability to neutralize the function of BMP4 ex vivo. Inhibition of BMP activity is one of the requirements to maintain Intestinal Stem Cells in vitro cultured as “organoids” that mimic crypt-villus structures and is usually provided by the addition of Noggin to the media. Murine small intestine organoids were cultured in the presence or absence of the VHH biheads and compared to Noggin. To precisely determine which BMPs are present in these cultures, BMP secretion was measured in the conditioned media of intestinal organoids grown without Noggin for three days. Whereas BMP2, BMP4 and BMP6 could be detected by ELISA (FIG. 14A), BMP5 levels were negative, most likely due to the low sensitivity of the ELISA assay (>250 pg/mL), and not due to the lack of BMP5 in these cultures. Indeed, analysis of the protein lysates of these organoids, detected the presence of BMP2, BMP4, BMP5 and BMP6 (FIG. 14B). Next, freshly isolated crypts from murine small intestines were cultured with the VHHs and tested for their ability to provide endogenous BMP inhibition and to sustain organoid cultures ex vivo. […]
(§2) Organoids were cultured as previously described (Sato et al., 2009). […] Crypts were counted and resuspended in matrigel. […]

[2] = test system: mouse intestinal organoids; test: Ex vivo mouse intestinal organoid culture (number and growth of organoids); type: cell-based; conditions: VHHs in place of Fc-Noggin, 5 days
Description: as §1, §2

[3] = test system: HT29 cells; test: Chemosensitivity / cell viability (Presto Blue); type: cell-based, human
Description: We wanted to determine whether this effect could be attributable to BMP4 that is being secreted by the cancer cells, and if therefore, could be inhibited by our BMP4-specific VHHs. A panel of colorectal cancer cells was tested for the presence of active BMPs in their conditioned media (FIG. 28A). To that end, the C2C12 cells were cultured with supernatants from different cancer cell lines. When normalized for the BMPs present in normal fetal calf serum, we found a high variability in BRE-luciferase activity across cell lines. […] One of those cell lines, HT29, was used to test the effect of BMP4 inhibition in terms of proliferation. No effect was observed when cultured with the VHHs or Noggin alone (data not shown).
HT29 cells were plated in 96-well plates at a density of 10,000 cells per well. […] The VHHs or Noggin were added at the same time at a concentration of 500 ng/ml. Cell viability was measured by adding the Presto Blue Reagent (Invitrogen) for 2 hours at 37° C., after which absorbance was measured at […].

| Molecule | inhibition of endogenous BMP activity ex vivo (BRE-luciferase activity of organoid supernatants) [1] | maintenance of organoid culture growth / stem cell proliferation [2] | chemosensitivity (cell viability) in combination with Carboplatin, 5′FU or Oxaliplatin ([3]; 500 ng/ml, 48 hours) | effect on HT29 proliferation, alone ([3]; without chemotherapy (data not shown)) |
| --- | --- | --- | --- | --- |
| B1 | to the same level as the natural inhibitor Noggin | able to maintain culture growth of organoids |  |  |
| B2 |  |  | not as effective as observed for C4C4 or C8C8 | No effect |

— US10280218B2, “Antibodies binding to BMP4, and uses thereof” (ACADEMISCH MEDISCH CENTRUM, priority 2014, dated 2019)
